Experimental data: patent US20120244560A1 (ISHIHARA SANGYO, published 2012)

B1: monoclonal antibody produced by hybridoma ISK-MMH-TK2 (antibody, V domains shown)
VH: DVQLQDSGPGLVKPSQTVSLTCTVTGISITTGNFRWSWIRQFPGNKLEWIGYIYYSGTITYNPSLTSRTTITRDTSKNQFFLEMNSLTAEDTATYYCARELYGYGYFDVWAAGTTVTVSS
VL: DVVMTQIPLSLPVSLGDQASISCRSTQSLVHSNGNTYLHWFLQKPGQSPKLLIYKVSNRFSGVPDRFSGSGSGTDFTLKISRVEAEDLGVYFCSQSKYVPRTFGGGTKLEIKR
notes: used as hybridoma culture supernatant; The whole entries are named; they hold leader and primer-derived residues, X and *; also called FERM BP-11266
B2: HIG-1-Flag (human HIG-1 polypeptide with a Flag tag downstream, made in E. coli as GST-HIG-1-Flag, GST cleaved off with PreScission Protease) (other, UniProt Q9Y241 1-93, looked up)
chain: MSTDTGVSLPSYEEDQGSKLIRKAKEAPFVPVGIAGFAAIVAYGLYKLKSRGNTKMSIHLIHMRVAAQGFVVGAMTVGMGYSMYREFWAKPKP
notes: Expressed from pGST-HIG-1-Flag (pGEX 6P-1); also called HIG-1-Flag protein; not shown: Flag tag downstream of HIG-1

Tests used:
[1] = biological target: B2; assay: competitive ELISA, coated HIG-1-Flag, soluble HIG-1-Flag as competitor
Protocol: Specifically, the HIG-1-Flag obtained in Example 2 as a solid-phase antigen was coated at a concentration of 2.5 μg/mL (50 mM carbonate buffer solution, pH 9.6, Sigma, No. C3041) in an amount of 50 μL per well, onto a plate at room temperature for 1 hour. Washing was performed 3 times with PBS-T, and then blocking was conducted with PBS (10% FBS-PBS) containing 10% FBS for 1 hour. After washing was performed 3 times with PBS-T, the PBS-T diluent of the antibody culture supernatant obtained in Example 1 was mixed with a diluted solution of a competitive substance (serial dilution with PBS-T) and reacted at room temperature for 1 hour. The reaction mixture was placed in a plate in an amount of 50 W., per well and allowed to stand for 1 hour at room temperature. […] After reaction, the 405 nm absorbance was measured.
These antibodies were both capable of quantitatively measuring a HIG-1-Flag in the range of 0.7 to 6.2 ng/mL. The dissociation constant Kd of the monoclonal antibody to a HIG-1-Flag was calculated with reference to “Antibody engineering; A Practical Approach” (edited by McCafferty J., et al.), Chapter 4, 77-97, IRL Press Oxford.

[2] = biological target: B1; assay: competitive ELISA: HIG-1-Flag coated at 2.5 µg/mL, ISK-MMH-TK2 culture supernatant (diluted 3,200-fold) premixed with soluble HIG-1-Flag as competing agent, AP-labelled anti-mouse IgG, A405nm
Protocol: Specifically, the HIG-1-Flag obtained in Example 2 as a solid-phase antigen was coated at a concentration of 2.5 μg/mL (50 mM carbonate buffer solution, pH 9.6, Sigma, No. C3041) in an amount of 50 μL per well, onto a plate at room temperature for 1 hour. Washing was performed 3 times with PBS-T, and then blocking was conducted with PBS (10% FBS-PBS) containing 10% FBS for 1 hour. After washing was performed 3 times with PBS-T, the PBS-T diluent of the antibody culture supernatant obtained in Example 1 was mixed with a diluted solution of a competitive substance (serial dilution with PBS-T) and reacted at room temperature for 1 hour. The reaction mixture was placed in a plate in an amount of 50 W., per well and allowed to stand for 1 hour at room temperature. […] As competitive substances, a HIG-1-Flag (on which 3-fold serial dilution was performed 8 times from 0.167 μg/mL), KLH (on which 3-fold serial dilution was performed 8 times from 100 μg/mL), or GST (on which 3-fold serial dilution was performed 8 times from 100 μg/mL) was used. After washing was performed using PBS-T 3 times, the alkaline phosphatase-labeled secondary antibody (anti-mouse IgG) diluted 1,000-fold with 10% FBS-PBS-T was placed in an amount of 50 per well and allowed to stand at room temperature for 1 hour. […] After reaction, the 405 nm absorbance was measured.

| Binder | Kd [1] [pM] | IC50 (read off the curve) [2] [ng/mL] |
| --- | --- | --- |
| monoclonal antibody produced by hybridoma ISK-MMH-TK1 (antibody, V domains shown, used as hybridoma culture supernatant; The whole entries are named; they hold leader and primer-derived residues, X and * that are not part of the mature antibody; also called FERM BP-11267) VH: EVQLQQSGPELVKPGASVKISCKTSGYTFTKYTMHWVKQSHGKSLEWIGGINPNNGGSRYDQKFRGKATLTVDKSSSTAYMEFRSLTSEDSAVYYCARDFVYWGQGTLVTVSA VL: DVLMTQTPLSLPVSLGDQASISCRSSQSIVHSNGNTYLEWYLQKPGQSPKLLIYKVSNRFSGVPDRFSGSGSGTDFTLKISRVEAEDLGVYYCFQGSHVPWTFGGGTKLEIKR | 220 |  |
| B1 | 170 |  |
| B2 |  | ~2 |
